{
  "source": "paper PMC10397247",
  "key": {"[1]": {"target": "T1, P6p", "T1 chain": "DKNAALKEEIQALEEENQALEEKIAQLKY", "experiment": "two-hybrid library CCmax;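 also: natural log of median RNA to DNA barcode read ratio; higher means stronger binding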", "settings": "mean of both orientations"}, "[2]": {"target": "T2, P7bHq", "T2 chain": "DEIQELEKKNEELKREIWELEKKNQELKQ", "experiment": "two-hybrid library CCNG1"}, "[3]": {"target": "T3, P6bHq", "T3 chain": "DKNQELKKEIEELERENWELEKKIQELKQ", "experiment": "two-hybrid library CCNG1"}, "[4]": {"target": "T4, P10bHq", "T4 chain": "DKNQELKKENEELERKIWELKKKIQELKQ", "experiment": "two-hybrid library CCNG1"}, "[5]": {"target": "T5, P3bHq", "T5 chain": "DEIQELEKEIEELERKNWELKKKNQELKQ", "experiment": "two-hybrid library CCNG1"}, "[6]": {"target": "T6, P9bHq", "T6 chain": "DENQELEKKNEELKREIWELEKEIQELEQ", "experiment": "two-hybrid library CCNG1"}, "[7]": {"target": "T7, P1bHq", "T7 chain": "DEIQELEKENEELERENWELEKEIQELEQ", "experiment": "two-hybrid library CCNG1"}, "[8]": {"target": "T8, P8bHq", "T8 chain": "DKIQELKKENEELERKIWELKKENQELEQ", "experiment": "two-hybrid library CCNG1"}, "[9]": {"target": "T9, P5bHq", "T9 chain": "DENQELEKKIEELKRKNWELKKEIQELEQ", "experiment": "two-hybrid library CCNG1"}, "[10]": {"target": "T10, P12bHq", "T10 chain": "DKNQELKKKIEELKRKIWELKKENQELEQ", "experiment": "two-hybrid library CCNG1"}, "[11]": {"target": "T11, P4bHq", "T11 chain": "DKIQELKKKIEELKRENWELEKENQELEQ", "experiment": "two-hybrid library CCNG1"}, "[12]": {"target": "T12, P11bHq", "T12 chain": "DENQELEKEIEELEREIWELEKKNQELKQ", "experiment": "two-hybrid library CCNG1"}, "[13]": {"target": "T13, O7-bN", "T13 chain": "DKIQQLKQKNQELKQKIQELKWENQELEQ", "experiment": "two-hybrid library CCNG1"}, "[14]": {"target": "T14, O15-bN", "T14 chain": "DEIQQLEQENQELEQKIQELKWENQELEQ", "experiment": "two-hybrid library CCNG1"}, "[15]": {"target": "T15, O12-bN", "T15 chain": "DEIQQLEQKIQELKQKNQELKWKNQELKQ", "experiment": "two-hybrid library CCNG1"}, "[16]": {"target": "T16, O9-bN", "T16 chain": "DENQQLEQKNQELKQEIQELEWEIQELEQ", "experiment": "two-hybrid library CCNG1"}, "[17]": {"target": "T17, O5-bN", "T17 chain": "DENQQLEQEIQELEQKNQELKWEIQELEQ", "experiment": "two-hybrid library CCNG1"}, "[18]": {"target": "T18, O13-bN", "T18 chain": "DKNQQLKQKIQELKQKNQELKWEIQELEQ", "experiment": "two-hybrid library CCNG1"}, "[19]": {"target": "T19, O6-bN", "T19 chain": "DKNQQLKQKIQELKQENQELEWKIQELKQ", "experiment": "two-hybrid library CCNG1"}, "[20]": {"target": "T20, O4-bN", "T20 chain": "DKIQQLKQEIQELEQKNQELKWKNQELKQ", "experiment": "two-hybrid library CCNG1"}, "[21]": {"target": "T21, O16-bN", "T21 chain": "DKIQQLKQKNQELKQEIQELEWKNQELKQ", "experiment": "two-hybrid library CCNG1"}, "[22]": {"target": "T22, O8-bN", "T22 chain": "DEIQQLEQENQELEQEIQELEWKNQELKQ", "experiment": "two-hybrid library CCNG1"}, "[23]": {"target": "T23, O10-bN", "T23 chain": "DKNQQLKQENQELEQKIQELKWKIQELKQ", "experiment": "two-hybrid library CCNG1"}, "[24]": {"target": "T24, O1-bN", "T24 chain": "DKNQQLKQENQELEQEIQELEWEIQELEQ", "experiment": "two-hybrid library CCNG1"}, "[25]": {"target": "T25, O3-bN", "T25 chain": "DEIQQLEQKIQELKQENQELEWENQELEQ", "experiment": "two-hybrid library CCNG1"}, "[26]": {"target": "T26, O11-bN", "T26 chain": "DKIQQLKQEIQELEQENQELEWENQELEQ", "experiment": "two-hybrid library CCNG1"}, "[27]": {"target": "T27, O2-bN", "T27 chain": "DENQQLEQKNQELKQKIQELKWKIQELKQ", "experiment": "two-hybrid library CCNG1"}, "[28]": {"target": "T28, O14-bN", "T28 chain": "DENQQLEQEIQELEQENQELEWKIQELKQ", "experiment": "two-hybrid library CCNG1"}, "[29]": {"target": "T29, 4H342-bN", "T29 chain": "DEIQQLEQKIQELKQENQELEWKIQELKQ", "experiment": "two-hybrid library CCNG1"}, "[30]": {"target": "T30, 4H496-bN", "T30 chain": "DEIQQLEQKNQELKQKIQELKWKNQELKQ", "experiment": "two-hybrid library CCNG1"}, "[31]": {"target": "T31, 4H2691-bN", "T31 chain": "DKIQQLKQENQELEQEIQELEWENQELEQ", "experiment": "two-hybrid library CCNG1"}, "[32]": {"target": "T32, 4H2619-bN", "T32 chain": "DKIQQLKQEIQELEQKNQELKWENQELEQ", "experiment": "two-hybrid library CCNG1"}, "[33]": {"target": "T33, 4H3632-bN", "T33 chain": "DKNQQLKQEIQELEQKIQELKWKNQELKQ", "experiment": "two-hybrid library CCNG1"}, "[34]": {"target": "T34, 4H1347-bN", "T34 chain": "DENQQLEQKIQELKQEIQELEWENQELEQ", "experiment": "two-hybrid library CCNG1"}, "[35]": {"target": "T35, 4H145-bN", "T35 chain": "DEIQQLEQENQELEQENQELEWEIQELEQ", "experiment": "two-hybrid library CCNG1"}, "[36]": {"target": "T36, 4H3070-bN", "T36 chain": "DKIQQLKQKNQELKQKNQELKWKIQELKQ", "experiment": "two-hybrid library CCNG1"}, "[37]": {"target": "T37, Core_IINI-es_KKEE", "T37 chain": "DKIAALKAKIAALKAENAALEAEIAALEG", "experiment": "two-hybrid library CCmax", "settings": "mean of both orientations"}},
  "data": [
    {"binder": "DENAALEEKIAQLKQKNAALKEEIQALEY", "note": "[P5p]", "values": [
      {"measurement": "interaction score", "setting": "[1]", "value": 1.9}
    ]},
    {"binder": "DKNQELKKENEELERKIWELKKKIQELKQ", "note": "[P10bHq]", "values": [
      {"measurement": "interaction score", "setting": "[2]", "value": 1.54},
      {"measurement": "interaction score", "setting": "[3]", "value": 1.3},
      {"measurement": "interaction score", "setting": "[4]", "value": -0.704},
      {"measurement": "interaction score", "setting": "[5]", "value": -0.901},
      {"measurement": "interaction score", "setting": "[6]", "value": 1},
      {"measurement": "interaction score", "setting": "[7]", "value": 1.43},
      {"measurement": "interaction score", "setting": "[8]", "value": -0.382},
      {"measurement": "interaction score", "setting": "[9]", "value": -0.0841},
      {"measurement": "interaction score", "setting": "[10]", "value": 1.08},
      {"measurement": "interaction score", "setting": "[11]", "value": 0.266},
      {"measurement": "interaction score", "setting": "[12]", "value": -1.18}
    ]},
    {"binder": "DKNQQLKQENQELEQEIQELEWEIQELEQ", "note": "[O1-bN]", "values": [
      {"measurement": "interaction score", "setting": "[13]", "value": -1.34},
      {"measurement": "interaction score", "setting": "[14]", "value": -1.32},
      {"measurement": "interaction score", "setting": "[15]", "value": -1.46},
      {"measurement": "interaction score", "setting": "[16]", "value": -1.9},
      {"measurement": "interaction score", "setting": "[17]", "value": -1.54},
      {"measurement": "interaction score", "setting": "[18]", "value": -1.14},
      {"measurement": "interaction score", "setting": "[19]", "value": -1.45},
      {"measurement": "interaction score", "setting": "[20]", "value": -0.922},
      {"measurement": "interaction score", "setting": "[21]", "value": -1.9},
      {"measurement": "interaction score", "setting": "[22]", "value": -0.836},
      {"measurement": "interaction score", "setting": "[23]", "value": -0.61},
      {"measurement": "interaction score", "setting": "[24]", "value": -0.57},
      {"measurement": "interaction score", "setting": "[25]", "value": -2.11},
      {"measurement": "interaction score", "setting": "[26]", "value": -1.2},
      {"measurement": "interaction score", "setting": "[27]", "value": 2},
      {"measurement": "interaction score", "setting": "[28]", "value": -1.24}
    ]},
    {"binder": "DENQQLEQKIQELKQEIQELEWENQELEQ", "note": "[4H1347-bN]", "values": [
      {"measurement": "interaction score", "setting": "[29]", "value": -0.286},
      {"measurement": "interaction score", "setting": "[30]", "value": -0.299},
      {"measurement": "interaction score", "setting": "[31]", "value": -0.113},
      {"measurement": "interaction score", "setting": "[32]", "value": -1.17},
      {"measurement": "interaction score", "setting": "[33]", "value": 1.6},
      {"measurement": "interaction score", "setting": "[34]", "value": -0.341},
      {"measurement": "interaction score", "setting": "[35]", "value": -0.341},
      {"measurement": "interaction score", "setting": "[36]", "value": 0.122}
    ]},
    {"binder": "DEIAALEAEIAALEAKNAALKAKIAALKG", "note": "[Core_IINI-es_EEKK]", "values": [
      {"measurement": "interaction score", "setting": "[37]", "value": 2.25}
    ]}
  ]
}
